Columns and labels:
Test in all cases: EMSA
Conditions in all cases: EMSA with 5' 32P PCR fragments, MarA 1, 2 or 4 uM, PAGE at 150 V; buffer, salt, pH and temperature not given (cited method)
MarA (Escherichia coli) = biological target: T1, MarA (Escherichia coli) (UniProt P0ACH5)
T1 sequence: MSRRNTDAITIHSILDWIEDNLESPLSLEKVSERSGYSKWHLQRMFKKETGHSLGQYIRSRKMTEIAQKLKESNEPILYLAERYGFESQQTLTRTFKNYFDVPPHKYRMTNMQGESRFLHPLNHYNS

Rob (Escherichia coli) = biological target: T2, Rob (Escherichia coli) (UniProt P0ACI0)
T2 sequence: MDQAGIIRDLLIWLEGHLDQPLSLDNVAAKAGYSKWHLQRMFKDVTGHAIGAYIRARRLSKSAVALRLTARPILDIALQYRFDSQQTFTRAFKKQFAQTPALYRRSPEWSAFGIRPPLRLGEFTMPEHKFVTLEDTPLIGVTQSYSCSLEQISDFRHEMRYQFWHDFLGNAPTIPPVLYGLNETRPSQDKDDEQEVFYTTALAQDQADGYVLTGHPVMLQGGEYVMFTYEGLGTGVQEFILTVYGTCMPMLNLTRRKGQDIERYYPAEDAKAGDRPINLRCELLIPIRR

SoxS (Escherichia coli) = biological target: T3, SoxS (Escherichia coli) (UniProt P0A9E2)
T3 sequence: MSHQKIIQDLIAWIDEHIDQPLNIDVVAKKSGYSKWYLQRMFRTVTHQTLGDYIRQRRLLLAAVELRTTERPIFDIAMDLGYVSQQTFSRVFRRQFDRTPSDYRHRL

| Sequence | binding (MarA (Escherichia coli)) | binding (Rob (Escherichia coli)) | binding (SoxS (Escherichia coli)) |
| --- | --- | --- | --- |
| AATTCATTGGCCAGAGGGTTTGGTTGGGTGAGAATGTGACGGTTTTGCCTGGAACAATTATTGGTAATGGAGTCGTAGTCGGCGCCAATTCTGTTGTTAGAGGTTCTATTCCCGAAAATACTGTCATTGCGGGAGTACCAGCAAAAATCATAAAGAAATACAATCATGAGACCAAATTATGAAGCTTCGGGC / GCCCGAAGCTTCATAATTTGGTCTCATGATTGTATTTCTTTATGATTTTTGCTGGTACTCCCGCAATGACAGTATTTTCGGGAATAGAACCTCTAACAACAGAATTGGCGCCGACTACGACTCCATTACCAATAATTGTTCCAGGCAAAACCGTCACATTCTCACCCAACCAAACCCTCTGGCCAATG [wbbK regulatory region] | no binding | – | – |
| AATTCCATGGTGTACGGTTCCTGCGAGATGGGAAAGTAAAAATCCGCGGCATGATATAGCAATTATCGATAATTAACATCCACACATTTTACGCTACATTTGCGCATTAAAAATTATTTGTTATTTACAAGCGCGGCAAGGGCCGCCAGTCTTCAGCCACAAATTTTGGTTGCGGGCGAAAAAATGCGACAATACATACAATTGCCCGAATAGGTTGAAAAACAGGATTGATATGAAGCTTCGGGC / GCCCGAAGCTTCATATCAATCCTGTTTTTCAACCTATTCGGGCAATTGTATGTATTGTCGCATTTTTTCGCCCGCAACCAAAATTTGTGGCTGAAGACTGGCGGCCCTTGCCGCGCTTGTAAATAACAAATAATTTTTAATGCGCAAATGTAGCGTAAAATGTGTGGATGTTAATTATCGATAATTGCTATATCATGCCGCGGATTTTTACTTTCCCATCTCGCAGGAACCGTACACCATGG [lpxLmut3 regulatory region] | binds | – | – |
| AATTCTGCAACTAAACCGTGGCACAAATGGGCAATTTATCCATCGGTAAAATACTATAAAATAGCTTTAGAAAATTCCCCCTGGAAAGATGACTCTCCACGAGATGCGAAATCAATTATTGAATTTAAAAAAAGATATAAACATCTTTTAGTGCAACATCATTATATCTCAGGAATTATAGCAGGAGTCTGTTATCTTTGCCGAAAATATTACCGTAAATAACATTTAACTGGTTTATTATGAAGCTTCGGGC / GCCCGAAGCTTCATAATAAACCAGTTAAATGTTATTTACGGTAATATTTTCGGCAAAGATAACAGACTCCTGCTATAATTCCTGAGATATAATGATGTTGCACTAAAAGATGTTTATATCTTTTTTTAAATTCAATAATTGATTTCGCATCTCGTGGAGAGTCATCTTTCCAGGGGGAATTTTCTAAAGCTATTTTATAGTATTTTACCGATGGATAAATTGCCCATTTGTGCCACGGTTTAGTTGCAG [rfaY (waaY) regulatory region] | binds | binds | binds |
| AATTCTGCGTAAGCAAGCTGATTAAGAATTGACTGGAATTTGGGTTTCGAGTGTGTTTGTGCTAAACTGGCCCGCCGAATGTATAGTACACTTCGGTTGGATAGGTAATTTGGCGAGATAATACGATGAAGCTTCGGGC / GCCCGAAGCTTCATCGTATTATCTCGCCAAATTACCTATCCAACCGAAGTGTACTATACATTCGGCGGGCCAGTTTAGCACAAACACACTCGAAACCCAAATTCCAGTCAATTCTTAATCAGCTTGCTTACGCAG [lpxCmut regulatory region] | binds more weakly | – | – |
| GCCCGAAGCTTCATAACTGTAACCTTCGAATTATGGAGTCAGAGACAATCTCAGACACGAATGTCTGTAATCATACCATCACATCCGAATCCCTTCAGCCCTTTACATAGAGGTGCAAGGATGCTAATTGCAACAAACTAGTTTGGGTTTTAGCTAGTCCTTCATGGCGGATGTTGGTTTTGCATGTGAATAGTGCG / AATTCGCACTATTCACATGCAAAACCAACATCCGCCATGAAGGACTAGCTAAAACCCAAACTAGTTTGTTGCAATTAGCATCCTTGCACCTCTATGTAAAGGGCTGAAGGGATTCGGATGTGATGGTATGATTACAGACATTCGTGTCTGAGATTGTCTCTGACTCCATAATTCGAAGGTTACAGTTATGAAGCTTCGGGC [waaD regulatory region] | no binding | – | – |
| GCCCGAAGCTTCATAGTAAATAGCTGACTTATGGATGTGCTGGGGATTCTATGTATTTAGCTGTGGCTTTACCATTACTTTTCCCGTTTTTGACTTAAATAGCTTCAGTTTGGTCTGATCTGCCGCTACATCTTCATTTTTTTTGTATTTTTATGCGATTCATTGAAACTCGGCCCG / AATTCGGGCCGAGTTTCAATGAATCGCATAAAAATACAAAAAAAATGAAGATGTAGCGGCAGATCAGACCAAACTGAAGCTATTTAAGTCAAAAACGGGAAAAGTAATGGTAAAGCCACAGCTAAATACATAGAATCCCCAGCACATCCATAAGTCAGCTATTTACTATGAAGCTTCGGGC [kdtA (waaA) regulatory region] | binds | – | – |
| GCCCGAAGCTTCATATCAATCCTGTTTTTCAACCTATTCGGGCAATTGTATGTATTGTCGCATTTTTTCGCCCGCAACCAAAATTTGTGGCTGAAGACTGGGCGAAATTGCCGCGCTTGTAAATAACAAATAATTTTTAATGCGCAAATGTAGCGTAAAATGTGTGGATGTTAATTATCGATAATACATATATCATGCCGCGGATTTTTACTTTCCCATCTCGCAGGAACCGTACACCATGG / AATTCCATGGTGTACGGTTCCTGCGAGATGGGAAAGTAAAAATCCGCGGCATGATATATGTATTATCGATAATTAACATCCACACATTTTACGCTACATTTGCGCATTAAAAATTATTTGTTATTTACAAGCGCGGCAATTTCGCCCAGTCTTCAGCCACAAATTTTGGTTGCGGGCGAAAAAATGCGACAATACATACAATTGCCCGAATAGGTTGAAAAACAGGATTGATATGAAGCTTCGGGC [lpxLmut1 regulatory region] | binds more weakly | – | – |
| GCCCGAAGCTTCATATCAATCCTGTTTTTCAACCTATTCGGGCAATTGTATGTATTGTCGCATTTTTTCGCCCGCAACCAAAATTTGTGGCTGAAGACTGGGCGAAATTGCCGCGCTTGTAAATAACAAATAATTTTTAATGCGCAAATGTAGCGTAAAATGTGTGGATGTTAATTATCGATAATTGCTATATCATGCCGCGGATTTTTACTTTCCCATCTCGCAGGAACCGTACACCATGG / AATTCCATGGTGTACGGTTCCTGCGAGATGGGAAAGTAAAAATCCGCGGCATGATATAGCAATTATCGATAATTAACATCCACACATTTTACGCTACATTTGCGCATTAAAAATTATTTGTTATTTACAAGCGCGGCAATTTCGCCCAGTCTTCAGCCACAAATTTTGGTTGCGGGCGAAAAAATGCGACAATACATACAATTGCCCGAATAGGTTGAAAAACAGGATTGATATGAAGCTTCGGGC [lpxL regulatory region] | binds | binds | binds |
| GCCCGAAGCTTCATATCAATCCTGTTTTTCAACCTATTCGGGCAATTGTATGTATTGTCGCATTTTTTCGCCCGCAACCAAAATTTGTGGCTGAAGACTGGGCGAAATTGCCGCGCTTGTAAATAACAAATAATTTTTAATGCTGTAATGTAGCGTAAAATGTGTGGATGTTAATTATCGATAATTGCTATATCATGCCGCGGATTTTTACTTTCCCATCTCGCAGGAACCGTACACCATGG / AATTCCATGGTGTACGGTTCCTGCGAGATGGGAAAGTAAAAATCCGCGGCATGATATAGCAATTATCGATAATTAACATCCACACATTTTACGCTACATTACAGCATTAAAAATTATTTGTTATTTACAAGCGCGGCAATTTCGCCCAGTCTTCAGCCACAAATTTTGGTTGCGGGCGAAAAAATGCGACAATACATACAATTGCCCGAATAGGTTGAAAAACAGGATTGATATGAAGCTTCGGGC [lpxLmut2 regulatory region] | binds | – | – |
| GCCCGAAGCTTCATCGTATTATCTCGCCAAATTACCTATCCAACCGAAGTGTACTATACATTCGGCGGGCCAGTTTAGCACAAAGAGCCTCGAAACCCAAATTCCAGTCAATTCTTAATCAGCTTGCTTACGCAG / AATTCTGCGTAAGCAAGCTGATTAAGAATTGACTGGAATTTGGGTTTCGAGGCTCTTTGTGCTAAACTGGCCCGCCGAATGTATAGTACACTTCGGTTGGATAGGTAATTTGGCGAGATAATACGATGAAGCTTCGGGC [lpxC regulatory region] | binds | binds | binds |
| GCCCGAAGCTTCATGATGAGCATTCAGATAGTGGTTCACGCGCACGGGTTGCGCACCGCCGGAGTAAGGATTTACTGAGGCTAGCGACGCCATCATAACGAGCAAAAAGACAGATCGTCAAAGGAGAATCGTGAGGAAATGCTGCATTGCTGACATTTACGCCG / AATTCGGCGTAAATGTCAGCAATGCAGCATTTCCTCACGATTCTCCTTTGACGATCTGTCTTTTTGCTCGTTATGATGGCGTCGCTAGCCTCAGTAAATCCTTACTCCGGCGGTGCGCAACCCGTGCGCGTGAACCACTATCTGAATGCTCATCATGAAGCTTCGGGC [pbpGmut regulatory region] | no binding | – | – |
| GCCCGAAGCTTCATGATGAGCATTCAGATAGTGGTTCACGCGCACGGGTTGCGCACCGCCGGAGTAAGGATTTACTGAGGCTAGCGACGCCATCATAACGAGCAAAAAGTGCGATCGTCAAAGGAGAATCGTGAGGAAATGCTGCATTGCTGACATTTACGCCG / AATTCGGCGTAAATGTCAGCAATGCAGCATTTCCTCACGATTCTCCTTTGACGATCGCACTTTTTGCTCGTTATGATGGCGTCGCTAGCCTCAGTAAATCCTTACTCCGGCGGTGCGCAACCCGTGCGCGTGAACCACTATCTGAATGCTCATCATGAAGCTTCGGGC [pbpG regulatory region] | binds | – | – |
